Substrate in this data set: CCO
Description: purified protein. Particulars: no inhibitor, NAD+ 0.6 mM, pH 9.5 TRIS-HCl 0.05 M, room temperature. It is filed as biochemical, Equus caballus.

B1: alcohol dehydrogenase from horse liver (HLADH) (Equus caballus) (protein)
chain: STAGKVIKCKAAVLWEEKKPFSIEEVEVAPPKAHEVRIKMVATGICRSDDHVVSGTLVTPLPVIAGHEAAGIVESIGEGVTTVRPGDKVIPLFTPQCGKCRVCKHPEGNFCLKNDLSMPRGTMQDGTSRFTCRGKPIHHFLGTSTFSQYTVVDEISVAKIDAASPLEKVCLIGCGFSTGYGSAVKVAKVTQGSTCAVFGLGGVGLSVIMGCKAAGAARIIGVDINKDKFAKAKEVGATECVNPQDYKKPIQEVLTEMSNGGVDFSFEVIGRLDTMVTALSCCQEAYGVSVIVGVPPDSQNLSMNPMLLLSGRTWKGAIFGGFKSKDSVPKLVADFMAKKFALDPLITHVLPFEKINEGFDLLRSGESIRTILTF
notes: commercial native enzyme from horse liver (Fluka AG), full length, used as received
Turning to B1, the Km (commonly the substrate concentration at which the rate is half of its maximum) was 46.7 ± 0.8 mM.

The record behind these values is PMC2267099, “Inhibition of Horse Liver Alcohol Dehydrogenase by Methyltin Compounds” (Bioinorganic Chemistry and Applications, 2005).
